These are literature values, as cited in publication PMC3631546.

As usually defined, the pKa is the pH at which an ionisable group is half protonated.

The target in this data set is His37 (UniProt position 37, IIGILHLILWI). The experiment in a line: NMR. The settings on record: membrane-bound tetrameric channel, no drug mentioned.

Turning to “Influenza A M2 proton channel, transmembrane peptide (M2TM) (Influenza A virus (strain not stated))”, the pKa is recorded as 8.2.
